T1: GST-tagged mature full-length GET3b (Arabidopsis thaliana, UniProt A1L4Y1 68-411)
T1 sequence: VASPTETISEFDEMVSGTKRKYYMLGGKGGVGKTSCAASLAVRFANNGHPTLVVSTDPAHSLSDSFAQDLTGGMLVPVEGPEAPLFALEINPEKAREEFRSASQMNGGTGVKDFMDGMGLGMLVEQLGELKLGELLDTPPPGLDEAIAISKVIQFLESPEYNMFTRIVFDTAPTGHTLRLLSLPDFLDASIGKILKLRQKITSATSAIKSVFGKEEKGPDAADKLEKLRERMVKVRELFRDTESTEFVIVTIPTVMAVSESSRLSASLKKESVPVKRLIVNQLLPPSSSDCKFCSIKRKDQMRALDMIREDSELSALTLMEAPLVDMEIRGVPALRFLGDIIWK

B1: His-tagged C-terminal region of ALB4 (aa 334-499) (domain or fragment)
chain: VWLQKYGGAKNPVEKFTNLVTKEDKTQQIEKSFSEPLVQKSVSELKIPREKGGEKVTPECPKPGERFRLLKEQEAKRRREKEERQKAEAALSNQNTDKAHEQDEKSDTAIVAEDDKKTELSAVDETSDGTVAVNGKPSIQKDETTNGTFGIGHDTEQQHSHETEKR
B2: His-tagged C-terminal region of ALB3 (aa 350-462) (domain or fragment)
chain: VYLRKLGGAKPNMDENASKIISAGRAKRSIAQPDDAGERFRQLKEQEKRSKKNKAVAKDTVELVEESQSESEEGSDDEEEEAREGALASSTTSKPLPEVGQRRSKRSKRKRTV

Molecular target: T1, GST-tagged mature full-length GET3b
Assay: pull-down

Binder	binding result
B1	binds
B2	binds

— doi:10.1101/2024.12.05.626995 (bioRxiv, 2024)
